Assay results reported in PMC4137731, “C-Terminal Domain Swapping of SSB Changes the Size of the ssDNA Binding Site”.

B1: dT55 (ssDNA)
DNA: TTTTTTTTTTTTTTTTTTTTTTTTTTTTTTTTTTTTTTTTTTTTTTTTTTTTTTT
B2: dT60 (ssDNA)
DNA: TTTTTTTTTTTTTTTTTTTTTTTTTTTTTTTTTTTTTTTTTTTTTTTTTTTTTTTTTTTT

Experiments:
Conditions in all cases: protein: recombinant; tags: none (untagged); chain copies: 4; label: 5' 32P
KpSSBnPaSSBc [1] = molecular target: T1, KpSSBnPaSSBc (Klebsiella pneumoniae subsp. pneumoniae …, UniProt A6TGW7 1-91+P40947:91-165, internal_change); experiment: EMSA; monomer conc.; 1 complex; 20 mM Tris-HCl pH 8.0, 100 mM NaCl, 25°C 30 min, 1.7 nM DNA, protein 0-5000 nM; native 8% PAGE in TBE at 4°C
KpSSBnStSSBc [2] = molecular target: T2, KpSSBnStSSBc (Klebsiella pneumoniae subsp. pneumoniae …, UniProt A6TGW7 1-91+P0A2F6:92-176, internal_change); experiment: as above
KpSSBnPaSSBc [3] = molecular target: T1, KpSSBnPaSSBc; experiment: EMSA; no complex observed up to 5000 nM; 20 mM Tris-HCl pH 8.0, 100 mM NaCl, 25°C 30 min, 1.7 nM DNA, protein 0-5000 nM; native 8% PAGE in TBE at 4°C
KpSSBnPaSSBc [4] = molecular target: T1, KpSSBnPaSSBc; experiment: EMSA; monomer conc.; 2 complexes; 20 mM Tris-HCl pH 8.0, 100 mM NaCl, 25°C 30 min, 1.7 nM DNA, protein 0-5000 nM; native 8% PAGE in TBE at 4°C
KpSSBnStSSBc [5] = molecular target: T2, KpSSBnStSSBc; experiment: as above

Binder	apparent K (half saturation) (KpSSBnPaSSBc [1]) [nM]	apparent K (half saturation) (KpSSBnStSSBc [2]) [nM]	also measured
B1	230 ± 30		
TTTTTTTTTTTTTTT (ssDNA) [dT15]		260 ± 60	
TTTTTTTTTTTTTTTTTTTT (ssDNA) [dT20]		110 ± 20	binding result (KpSSBnPaSSBc [3]): no binding
TTTTTTTTTTTTTTTTTTTTTTTTT (ssDNA) [dT25]	390 ± 60		
TTTTTTTTTTTTTTTTTTTTTTTTTTTTTTTTTTTTTTTT (ssDNA) [dT40]	220 ± 30	120 ± 20	
B2			apparent K (half saturation) (KpSSBnPaSSBc [4]): 230 ± 30 nM
TTTTTTTTTTTTTTTTTTTTTTTTTTTTTTTTTTTTTTTTTTTTT (ssDNA) [dT45]			apparent K (half saturation) (KpSSBnStSSBc [5]): 160 ± 20 nM
